These results are taken from article PMC7688924, “α-Galactosidase and Sucrose-Kinase Relationships in a Bi-functional AgaSK Enzyme Produced by the Human Gut Symbiont Ruminococcus gnavus E1” (Frontiers in Microbiology, 2020).

Substrate in series [1]: Nc1ncnc2c1ncn2[C@@H]1O[C@H](COP(=O)(O)OP(=O)(O)OP(=O)(O)O)[C@@H](O)[C@H]1O
In words: bioluminescence ATP consumption assay (luciferin/luciferase). The series is classed as biochemical, Mediterraneibacter gnavus. To be noted: sucrose 5 mM, pH 8.0, 30 °C, ATP 0-10 mM, […] enzyme. The text has this: bioluminescence ATP consumption assay (luciferin/luciferase) on RgSK

Substrate in series [2]: O=[N+]([O-])c1ccc(O[C@H]2O[C@H](CO)[C@H](O)[C@H](O)[C@H]2O)cc1
In words: purified protein. To be noted: McIlvaine's buffer pH 6.0, 42 °C, pNPGal 0.078-10 mM.

Substrate in series [3]: Nc1ncnc2c1ncn2[C@@H]1O[C@H](COP(=O)(O)OP(=O)(O)OP(=O)(O)O)[C@@H](O)[C@H]1O
In words: bioluminescence ATP consumption assay (luciferin/luciferase). Particulars: sucrose 5 mM, pH 8.0, 30 °C, ATP 0-10 mM, […] enzyme. The series is classed as biochemical, Mediterraneibacter gnavus. From the text:
bioluminescence ATP consumption assay (luciferin/luciferase) on […]
This is another data set of the same source.

B1: RgSK (Mediterraneibacter gnavus) (protein)
chain: RLYEKVQKWCDGNAENRVVISIYGGSGSGKTTLATALQQYFLNDGTECYLLSGDDYPHRIPKRNDEERMRVYKEAGEDGLRGYLGTKKEIDFDRINEVLAAFHEGKDSITLRHMGREDGEISLEETDFSGISVLLLEWTHGGSDDLHGVDLPVFLESSPGETRERRIRRNRDENAASPFICRVVELEQEKLEVQRKNAGLIVGKDGSVYEQ
notes: isolated C-terminal sucrose kinase domain, Arg-724 to Gln-935, C-terminal His6 tag, E. coli BL21(DE3), pOPINE, 23,898 Da
With B1, in series [1], the Km (usually the substrate concentration at which the rate is half of its maximum) is reported as 6.3 ± 1.8 mM; the Vmax (in general, the top rate of the reaction or transport when substrate is in excess) is 0.0719 µmol/min; the kcat – broadly, the maximal rate divided by the concentration of active sites – came to 27.9 ± 4.3 s⁻¹; the kcat/Km (as a rule, the turnover number divided by the Michaelis constant) came to 4420 M⁻¹ s⁻¹.

B2: RgAgaSK (Mediterraneibacter gnavus) (protein)
chain: MAIIYNPNKKIFTLHTAHTTYQMQVDPLGYLLHLYYGEKTNSSMDYVLTYADRGFSGNPYAAGMDRTYSLDALPQEYPSLGTGDYRNIALNIKNEKGVESADLLFKSYEIRNGKYRLQGLPAVWADEKEAQTLEIVLADENAQVEVHLLYGVLEENDVITRSVRIKNTGTGQITIEKAAAACLDFVQGEFDVLRFYGKHAMERNLERTPLGHGTIAFGSRRGTSSHQYNPAVILAEKGTTETAGSCYGMLFVYSGNFSCEAEKDQFNQTRLLLGLNEELFSYPLASGETFTVPEVILSYSAEGLSALSQQYHNCIRNHVCRSKYVHMQRPVLINSWEAAYFDFTGDTIVDLAKEAASLGIDMVVMDDGWFGKRNDDNSSLGDWQVNETKLGGSLAELITRVHEQGMKFGIWIEPEMINEDSDLYRAHPDWAIRIQGKKPVRSRNQLLLDFSRKEVRDCVFDQICVVLDQGKIDYVKWDMNRSMADVYAGNLSYDYVLGVYDFMERLCSRYPDLLLEGCSGGGGRFDAGMLYYSPQIWCSDNTDAINRTRIQYGTSFFYPVSAMGAHVSAVPNHQTGRVTSFHTRGVTAMAGTFGYELNPALLSDEEKQQIREQIKTYKKYETLINEGTYWRLSDPFTDEIAAWMSVSEEQDHALVSVVRLMAEANQATVYVRLRGLKPDAVYLEEQSGRQYSGAALMHAGIPLPPFTEEYEAYQFAFTELKEAGRLYEKVQKWCDGNAENRVVISIYGGSGSGKTTLATALQQYFLNDGTECYLLSGDDYPHRIPKRNDEERMRVYKEAGEDGLRGYLGTKKEIDFDRINEVLAAFHEGKDSITLRHMGREDGEISLEETDFSGISVLLLEWTHGGSDDLHGVDLPVFLESSPGETRERRIRRNRDENAASPFICRVVELEQEKLEVQRKNAGLIVGKDGSVYEQ
notes: full-length bifunctional enzyme (935 residues), produced in E. coli as in Bruel 2011, Ni-NTA and gel filtration, His-tag (C-terminal 6xHis given for recombinant proteins), tetramer
Take B2: in series [2], the Km was found to be 1.3 ± 0.2 mM, the maximal velocity (Vmax) worked out at 0.179 µmol/min, the kcat was 626 s⁻¹ and the kcat/Km is 481000 M⁻¹ s⁻¹. Besides, in series [3], the Km was determined as 8.4 ± 1.9 mM, the Vmax was found to be 0.0983 µmol/min, the turnover number (kcat) came to 38.1 ± 4.8 s⁻¹ and the kcat/Km was found to be 4530 M⁻¹ s⁻¹.

B3: RgAga (Mediterraneibacter gnavus) (protein)
chain: AIIYNPNKKIFTLHTAHTTYQMQVDPLGYLLHLYYGEKTNSSMDYVLTYADRGFSGNPYAAGMDRTYSLDALPQEYPSLGTGDYRNIALNIKNEKGVESADLLFKSYEIRNGKYRLQGLPAVWADEKEAQTLEIVLADENAQVEVHLLYGVLEENDVITRSVRIKNTGTGQITIEKAAAACLDFVQGEFDVLRFYGKHAMERNLERTPLGHGTIAFGSRRGTSSHQYNPAVILAEKGTTETAGSCYGMLFVYSGNFSCEAEKDQFNQTRLLLGLNEELFSYPLASGETFTVPEVILSYSAEGLSALSQQYHNCIRNHVCRSKYVHMQRPVLINSWEAAYFDFTGDTIVDLAKEAASLGIDMVVMDDGWFGKRNDDNSSLGDWQVNETKLGGSLAELITRVHEQGMKFGIWIEPEMINEDSDLYRAHPDWAIRIQGKKPVRSRNQLLLDFSRKEVRDCVFDQICVVLDQGKIDYVKWDMNRSMADVYAGNLSYDYVLGVYDFMERLCSRYPDLLLEGCSGGGGRFDAGMLYYSPQIWCSDNTDAINRTRIQYGTSFFYPVSAMGAHVSAVPNHQTGRVTSFHTRGVTAMAGTFGYELNPALLSDEEKQQIREQIKTYKKYETLINEGTYWRLSDPFTDEIAAWMSVSEEQDHALVSVVRLMAEANQATVYVRLRGLKPDAVYLEEQSGRQYSGAALMHAGIPLPPFTEEYEAYQFAFTELK
For B3, in series [2], the Km was found to be 1.2 ± 0.2 mM, the maximal velocity (Vmax) stood at 0.236 µmol/min, the kcat stood at 827 s⁻¹ and the kcat/Km was 689000 M⁻¹ s⁻¹.
